# Source: publication PMC3901395, “Multivalent interactions of the SUMO-interaction motifs in RING finger protein 4 determine the specificity for chains of the SUMO” (Biochemical Journal, 2013)
# B1: SIM domain: construct comprising the entire N-terminal part of RNF4 upstream of the RING domain (N-terminal 1–125 amino acids) (protein)
# chain: MSTRKRRGGAINSRQAQKRTREATSTPEISLEAEPIELVETAGDEIVDLTCESLEPVVVDLTHNDSVVIVDERRRPRRNARRLPQDHADSCVVSSDDEELSRDRDVYVTTHTPRNARDEGATGLR
# modifications: left off: GST, end not stated, cleaved
# Columns and labels:
# 2xSUMO1ΔN15 (di-SUMO1) = experiment: ITC binding to linear di-SUMO1 (2xSUMO1ΔN15); details: 50 mM Tris/HCl pH 7.5, 150 mM NaCl, 2 mM DTT, 5% glycerol, 25°C, averaged from two to six titrations, read-out: Dissociation constant (KD), 2xSUMO1ΔN15 (linear di-SUMO1)
# Text: (§1) For expression in Escherichia coli, linear poly-SUMO chains were generated as described previously with slight modifications. After the combined PCR/ligation reaction, the 4×SUMO2-ΔN11 or 4×SUMO1-ΔN15 DNA polymers were separated from smaller polymers by agarose gel electrophoresis and individually extracted (Macherey–Nagel). These were then subjected to a second PCR with primers to create BamHI and XhoI restriction sites, a C-terminal GG motif and a stop codon. The resulting fragments coding for di-, tri- and tetra-SUMO2-ΔN11 or SUMO1-ΔN15 chains were amplified and cloned into pGEX-4T2. […] Each monomer in these chains is separated by RS replacing the natural GG motif. A similar strategy was used to design C-terminally GFP–HA2-tagged linear poly-SUMOs in the copper-inducible Ycplac22 vector for expression in S. cerevisiae. […]
# (§2) The mono-SUMOs and linear poly-SUMO1 and poly-SUMO2 proteins as well as all RNF4 constructs were expressed as GST-fusion proteins from E. coli Rosetta™ 2(DE3)pLysS cells (Novagen) cultivated in LB medium with 100 μg/ml ampicillin and 30 μg/ml chloramphenicol after induction with 0.1 mM IPTG at 20°C for 12 h. […]
# (§3) Binding of peptides and proteins to SUMOs was investigated by ITC using either a VP-ITC or an ITC200 (GE Healthcare). […] Protein concentrations were determined by measuring the absorption at 280 nm. […]
# [1] = molecular target: 4xSUMO1ΔN15 (tetra-SUMO1); experiment: ITC binding to linear tetra-SUMO1 (4xSUMO1ΔN15); details: 50 mM Tris/HCl pH 7.5, 150 mM NaCl, 2 mM DTT, 5% glycerol, 25°C, averaged from two to six titrations, read-out: Dissociation constant (KD), 4xSUMO1ΔN15 (tetra-SUMO1)
# Text: as §1, §2, §3
# 2xSUMO2ΔN11 (di-SUMO2) = molecular target: T1, 2xSUMO2ΔN11 (di-SUMO2) (Homo sapiens, UniProt P61956); experiment: ITC binding to linear di-SUMO2 (2xSUMO2ΔN11); details: 50 mM Tris/HCl pH 7.5, 150 mM NaCl, 2 mM DTT, 5% glycerol, 25°C, averaged from two to six titrations, read-out: Dissociation constant (KD), 2xSUMO2ΔN11 (linear di-SUMO2)
# T1 construct: Each monomer in these chains is separated by RS replacing the natural GG motif; a C-terminal GG motif and a stop codon; GST (N, cleaved yes); made in house; host or cells: E. coli Rosetta 2(DE3)pLysS
# Text: as §1, §2, §3
# 3xSUMO2ΔN11 (tri-SUMO2) = experiment: ITC binding to linear tri-SUMO2 (3xSUMO2ΔN11)
# Text: as §1, §2, §3
# [2] = molecular target: 4xSUMO2ΔN11 (tetra-SUMO2); experiment: ITC binding to linear tetra-SUMO2 (4xSUMO2ΔN11); details: 50 mM Tris/HCl pH 7.5, 150 mM NaCl, 2 mM DTT, 5% glycerol, 25°C, averaged from two to six titrations, read-out: Dissociation constant (KD), 4xSUMO2ΔN11 (tetra-SUMO2)
# Text: as §1, §2, §3
# [3] = molecular target: native 2xSUMO2 ('native' Lys^11-linked di-SUMO2 chains); experiment: ITC binding to native Lys^11-linked di-SUMO2; details: 50 mM Tris/HCl pH 7.5, 150 mM NaCl, 2 mM DTT, 5% glycerol, 25°C, averaged from two to six titrations, chains produced by in vitro SUMOylation, read-out: Dissociation constant (KD), native Lys^11-linked di-SUMO2
# Description: The mono-SUMOs and linear poly-SUMO1 and poly-SUMO2 proteins as well as all RNF4 constructs were expressed as GST-fusion proteins from E. coli Rosetta™ 2(DE3)pLysS cells (Novagen) cultivated in LB medium with 100 μg/ml ampicillin and 30 μg/ml chloramphenicol after induction with 0.1 mM IPTG at 20°C for 12 h. Cells were lysed by sonication in GST-buffer I (50 mM Tris/HCl, pH 7.5, 150 mM NaCl and 2 mM DTT) in the presence of protease inhibitors (1 μg/ml aprotinin, 1 μg/ml leupeptin, 1 μg/ml pepstatin, 200 μM pefabloc and 100 μM PMSF). For tetra-SUMOs and RNF4 variants, 1.5% sarkosyl, 0.1% Triton X-100 and 5% glycerol were added. The proteins were affinity purified using glutathione beads (Protino® Glutathione Agarose 4B, Macherey–Nagel) and eluted by thrombin cleavage. The supernatant was subjected to anion exchange chromatography and further purified by SEC (size-exclusion chromatography) into ITC buffer (50 mM Tris/HCl, pH 7.5, 150 mM NaCl, 2 mM DTT and 5% glycerol) or in crystallization buffer (20 mM Tris/HCl, pH 7.5, and 100 mM NaCl). Native SUMO2 chains were produced by in vitro SUMOylation as described recently and subsequently purified by affinity chromatography and SEC.
# as §3
# [4] = test system: mono-SUMOs and SUMO chains; experiment: ITC binding to mono-SUMOs and SUMO chains (general statements); details: mono-SUMO1 and mono-SUMO2
# Text: as §1, §2, §3
# T1 sequence (P61956 with tags, fused parts or gaps): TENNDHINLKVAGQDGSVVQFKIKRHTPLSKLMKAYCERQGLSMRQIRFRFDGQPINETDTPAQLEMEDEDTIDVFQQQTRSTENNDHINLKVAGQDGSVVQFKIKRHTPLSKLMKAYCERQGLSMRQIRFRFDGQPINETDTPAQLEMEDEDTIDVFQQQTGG
molecule,measurement,setting,value
B1,Kd,2xSUMO1ΔN15 (di-SUMO1),17 µM
same,Kd,[1],4.3 µM
same,Kd,2xSUMO2ΔN11 (di-SUMO2),14 µM
same,Kd,"3xSUMO2ΔN11 (tri-SUMO2); 50 mM Tris/HCl pH 7.5, 150 mM NaCl, 2 mM DTT, 5% glycerol, 25°C, averaged from two to six titrations, read-out: Dissociation constant (KD), 3xSUMO2ΔN11 (tri-SUMO2)",19 µM
same,affinity for tri-SUMO compared with di-SUMO,3xSUMO2ΔN11 (tri-SUMO2); tri-SUMO2,did not result in an increase in affinity
same,Kd,[2],1.6 µM
same,Kd,[3],11 µM
same,affinity for mono-SUMOs,[4],very weak
